This experiment addresses T1, Aven (human, UniProt Q9NQS1 1-362).
T1 construct: also called Bif-1
T1 sequence: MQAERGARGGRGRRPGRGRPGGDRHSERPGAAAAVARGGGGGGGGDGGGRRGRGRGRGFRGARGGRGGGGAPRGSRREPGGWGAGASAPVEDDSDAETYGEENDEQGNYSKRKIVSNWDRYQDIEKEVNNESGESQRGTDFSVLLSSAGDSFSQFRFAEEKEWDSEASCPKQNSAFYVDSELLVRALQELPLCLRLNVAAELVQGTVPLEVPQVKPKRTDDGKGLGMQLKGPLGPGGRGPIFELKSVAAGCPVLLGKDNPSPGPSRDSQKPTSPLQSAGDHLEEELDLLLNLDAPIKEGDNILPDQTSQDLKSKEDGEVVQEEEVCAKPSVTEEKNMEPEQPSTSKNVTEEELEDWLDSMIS
In words: yeast two-hybrid / co-immunoprecipitation (FIG. 6).

This is an account of results in patent US6570002 (Johns Hopkins, dated 2003).

B1: Bak (other, UniProt Q16611 1-211, looked up)
chain: MASGQGPGPPRQECGEPALPSASEEQVAQDTEEVFRSYVFYRHQQEQEAEGVAAPADPEMVTLPLQPSSTMGQVGRQLAIIGDDINRRYDSEFQTMLQHLQPTAENAYEYFTKIATSLFESGINWGRVVALLGFGYRLALHVYQHGLTGFLGQVTRFVVDFMLHHCIARWIAQRGGWVAALNLGNGPILNVLVVLGVVLLGQFVVRRFFKS
On to B1, for which the binding result is given as “no binding”.
